Drawing on publication PMC10232555, this text covers stoichiometry N for one substance.

In this experiment the target is Vim93-302-Eb1 (vimentin residues 93 to 302 followed by the Eb1 capping motif) (UniProt P08670). As to the kind of experiment: SEC-MALS; data not shown; HS conditions.

The substance “Vim93-302-Eb1 (vimentin residues 93 to 302 followed by the Eb1 capping motif) (from UniProt P08670 93-302) (domain or fragment)” returned a stoichiometry N of 4.
